According to PMC3212559, “Large-Scale Protein-Protein Interaction Analysis in Arabidopsis Mesophyll Protoplasts by Split Firefly Luciferase Complementation” (PLoS ONE, 2011):

Experiments:
Assay in all cases: split reporter (BiFC, NanoBiT); SFLC in living Arabidopsis mesophyll protoplasts: Aux/IAA-FLucN or MYB30-FLucN co-expressed with ARFCTD-FLucC or Aux/IAA-FLucC for 6 hr; 10 µg of each construct, 2×10^4 cells, 96-well plate, D-luciferin; relative activity standardised against ARF5CTD-FLucC + IAA28-FLucN
Conditions in all cases: partners not purified
[1] = target: T1, ARF4 C-terminal domain (CTD)-FLucC (Arabidopsis, UniProt Q9ZTX9 665-788)
T1 construct: Arabidopsis auxin response factor 4, C-terminal dimerization domain (CTD); In the ARF-ARF tests the same CTD stood both as ARFCTD-FLucC and as ARFCTD-FLucN; one molecule for both; also called ARF4CTD-FLucC; ARFCTD-FLucC; source: Arabidopsis mesophyll protoplasts, transfected, in living cells (SFLC) and in lysate (co-IP); not shown: FLucC (firefly luciferase aa 394-550)
T1 sequence (looked up): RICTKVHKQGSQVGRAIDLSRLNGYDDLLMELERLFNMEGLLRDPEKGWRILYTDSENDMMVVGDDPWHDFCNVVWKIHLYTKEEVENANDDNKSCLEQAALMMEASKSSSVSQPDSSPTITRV

IAA3-FLucC = target: T2, IAA3-FLucC (Arabidopsis, UniProt Q38822 1-189)
T2 construct: Arabidopsis Aux/IAA protein IAA3; also called Aux/IAA-FLucC; source: Arabidopsis mesophyll protoplasts, transfected, in living cells; not shown: FLucC (firefly luciferase aa 394-550)
T2 sequence (looked up): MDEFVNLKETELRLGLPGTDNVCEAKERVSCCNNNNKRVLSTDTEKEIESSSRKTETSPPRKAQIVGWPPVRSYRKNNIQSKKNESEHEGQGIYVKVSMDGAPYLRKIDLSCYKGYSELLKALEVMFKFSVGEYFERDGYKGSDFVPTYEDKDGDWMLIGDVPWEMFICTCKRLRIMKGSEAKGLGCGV

[2] = target: T3, ARF9 C-terminal domain (CTD)-FLucC (Arabidopsis, UniProt Q9XED8 523-638)
T3 construct: Arabidopsis auxin response factor 9, C-terminal dimerization domain (CTD); In the ARF-ARF tests the same CTD stood both as ARFCTD-FLucC and as ARFCTD-FLucN; one molecule for both; also called ARF9CTD-FLucC; ARFCTD-FLucC; source: Arabidopsis mesophyll protoplasts, transfected, in living cells (SFLC) and in lysate (co-IP); not shown: FLucC (firefly luciferase aa 394-550)
T3 sequence (looked up): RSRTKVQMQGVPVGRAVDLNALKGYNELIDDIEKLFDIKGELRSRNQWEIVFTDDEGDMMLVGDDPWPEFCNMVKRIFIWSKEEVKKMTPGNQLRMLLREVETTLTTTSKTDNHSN

[3] = target: T4, ARF12 C-terminal domain (CTD)-FLucC (Arabidopsis, UniProt Q9XID4 511-593)
T4 construct: Arabidopsis auxin response factor 12, C-terminal dimerization domain (CTD); In the ARF-ARF tests the same CTD stood both as ARFCTD-FLucC and as ARFCTD-FLucN; one molecule for both; also called ARF12CTD-FLucC; ARFCTD-FLucC; source: Arabidopsis mesophyll protoplasts, transfected, in living cells; not shown: FLucC (firefly luciferase aa 394-550)
T4 sequence (looked up): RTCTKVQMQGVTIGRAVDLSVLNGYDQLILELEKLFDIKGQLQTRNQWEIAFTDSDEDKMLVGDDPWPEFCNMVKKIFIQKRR

[4] = target: T5, ARF1 C-terminal domain (CTD)-FLucC (Arabidopsis, UniProt Q8L7G0 542-665)
T5 construct: Arabidopsis auxin response factor 1, C-terminal dimerization domain (CTD); In the ARF-ARF tests the same CTD stood both as ARFCTD-FLucC and as ARFCTD-FLucN (FLucN, firefly luciferase aa 1-398, in place of FLucC); one molecule for both; also called ARF1CTD-FLucC; ARFCTD-FLucC; source: Arabidopsis mesophyll protoplasts, transfected, in living cells (SFLC) and in lysate (co-IP); not shown: FLucC …
T5 sequence (looked up): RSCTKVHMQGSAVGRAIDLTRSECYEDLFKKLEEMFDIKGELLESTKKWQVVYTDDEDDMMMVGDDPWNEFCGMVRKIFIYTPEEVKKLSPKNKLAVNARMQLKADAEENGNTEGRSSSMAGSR

[5] = target: T6, C-terminal domain (CTD) of ARF5-FLucC (Arabidopsis, UniProt P93024 793-902)
T6 construct: In the ARF-ARF tests the same CTD stood both as ARFCTD-FLucC and as ARFCTD-FLucN; one molecule for both; also called ARF5CTD-FLucC; auxin response factor 5; source: Arabidopsis mesophyll protoplasts, transfected, in living cells (SFLC) and in lysate (co-IP); not shown: FLucC (firefly luciferase aa 394-550)
T6 sequence (looked up): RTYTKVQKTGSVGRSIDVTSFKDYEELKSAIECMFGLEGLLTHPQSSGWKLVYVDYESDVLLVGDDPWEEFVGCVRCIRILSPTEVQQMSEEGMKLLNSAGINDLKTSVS

Measured: relative luciferase activity (standardised against ARF5CTD-FLucC + IAA28-FLucN)

B1: MYB30-FLucN (natural protein, UniProt Q9SCU7 1-323, looked up)
chain: MVRPPCCDKGGVKKGPWTPEEDIILVTYIQEHGPGNWRAVPTNTGLLRCSKSCRLRWTNYLRPGIKRGNFTEHEEKMIVHLQALLGNRWAAIASYLPQRTDNDIKNYWNTHLKKKLNKVNQDSHQELDRSSLSSSPSSSSANSNSNISRGQWERRLQTDIHLAKKALSEALSPAVAPIITSTVTTTSSSAESRRSTSSASGFLRTQETSTTYASSTENIAKLLKGWVKNSPKTQNSADQIASTEVKEVIKSDDGKECAGAFQSFSEFDHSYQQAGVSPDHETKPDITGCCSNQSQWSLFEKWLFEDSGGQIGDILLDENTNFF
notes: transcription factor MYB30, the unrelated protein used as negative control; source: Arabidopsis mesophyll protoplasts, transfected, in living cells; not shown: FLucN (firefly luciferase aa 1-398)
< 0.1: [1] | IAA3-FLucC | [2] | [3] | [4] | [5]
